Data taken from article doi:10.1101/2021.07.07.451531 (bioRxiv, 2021).

Columns and labels:
biotinylated iC3b = test: SPR
[1] = target: αM subunit of the αMβ2 headpiece (human, UniProt P11215); test: crystal structure
[2] = target: recombinant human αI domain of αMβ2 (human, UniProt P11215); test: SEC
recombinant human αI domain of αMβ2, sequence (P11215 148-336): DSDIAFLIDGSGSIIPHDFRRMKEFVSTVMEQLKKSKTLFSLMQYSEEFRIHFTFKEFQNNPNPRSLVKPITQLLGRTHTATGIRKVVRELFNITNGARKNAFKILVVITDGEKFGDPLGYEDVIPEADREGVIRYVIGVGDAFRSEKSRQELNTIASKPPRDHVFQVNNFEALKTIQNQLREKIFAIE

αM subunit of the αMβ2 headpiece, sequence (P11215 17-770): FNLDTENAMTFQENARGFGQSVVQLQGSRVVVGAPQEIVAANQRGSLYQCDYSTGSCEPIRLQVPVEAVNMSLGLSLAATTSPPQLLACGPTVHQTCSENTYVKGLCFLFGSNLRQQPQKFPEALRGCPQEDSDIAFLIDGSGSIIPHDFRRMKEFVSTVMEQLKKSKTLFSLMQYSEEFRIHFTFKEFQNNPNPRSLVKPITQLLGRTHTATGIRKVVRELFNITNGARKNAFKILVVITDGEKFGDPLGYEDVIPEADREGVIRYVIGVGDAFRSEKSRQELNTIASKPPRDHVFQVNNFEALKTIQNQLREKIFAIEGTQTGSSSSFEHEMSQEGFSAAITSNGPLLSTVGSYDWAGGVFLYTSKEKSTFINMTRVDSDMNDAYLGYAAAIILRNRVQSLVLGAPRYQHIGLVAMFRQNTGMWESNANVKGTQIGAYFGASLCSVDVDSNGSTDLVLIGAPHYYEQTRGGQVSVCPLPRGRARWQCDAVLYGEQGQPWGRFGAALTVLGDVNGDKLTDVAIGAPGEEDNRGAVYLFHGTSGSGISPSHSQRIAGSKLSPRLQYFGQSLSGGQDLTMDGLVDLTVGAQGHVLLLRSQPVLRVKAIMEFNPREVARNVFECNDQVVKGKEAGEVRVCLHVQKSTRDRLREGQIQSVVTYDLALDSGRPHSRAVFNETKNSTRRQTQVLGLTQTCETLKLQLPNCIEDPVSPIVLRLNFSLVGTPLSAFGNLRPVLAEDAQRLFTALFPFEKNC
αMβ2 headpiece, sequence (P05107 whole entry, looked up): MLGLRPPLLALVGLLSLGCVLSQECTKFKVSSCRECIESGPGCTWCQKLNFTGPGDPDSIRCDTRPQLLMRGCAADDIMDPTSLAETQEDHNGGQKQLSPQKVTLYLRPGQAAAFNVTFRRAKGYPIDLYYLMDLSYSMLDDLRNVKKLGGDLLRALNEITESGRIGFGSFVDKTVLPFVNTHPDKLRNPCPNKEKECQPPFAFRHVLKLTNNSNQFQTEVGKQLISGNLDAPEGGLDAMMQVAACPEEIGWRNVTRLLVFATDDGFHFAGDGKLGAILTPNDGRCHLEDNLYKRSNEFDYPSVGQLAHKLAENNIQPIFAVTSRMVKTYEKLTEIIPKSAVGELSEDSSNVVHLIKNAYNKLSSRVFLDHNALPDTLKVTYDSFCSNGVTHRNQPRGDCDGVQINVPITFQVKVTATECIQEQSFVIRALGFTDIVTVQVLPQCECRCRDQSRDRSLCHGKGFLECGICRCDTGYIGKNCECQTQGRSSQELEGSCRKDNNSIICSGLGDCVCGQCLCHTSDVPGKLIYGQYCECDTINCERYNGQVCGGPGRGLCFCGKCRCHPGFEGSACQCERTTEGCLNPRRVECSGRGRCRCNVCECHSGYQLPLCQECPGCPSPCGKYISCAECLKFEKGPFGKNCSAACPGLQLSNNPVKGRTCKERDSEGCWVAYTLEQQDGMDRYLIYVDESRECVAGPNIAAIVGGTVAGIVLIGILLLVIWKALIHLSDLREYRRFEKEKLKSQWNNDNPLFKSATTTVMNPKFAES

Kd (biotinylated iC3b) [nM]	binding result [1]	binding result [2]	Molecule
30			αMβ2 headpiece (from UniProt P05107 23-482) (complex)
	binds	binds	hCD11bNb1 (VHH) VHH: QVQLVETGGGLVQAGGSLRLSCAASGNINSFNAMGWFRQAPGKQRELVAAITFGGRTNYADSVKGRFTISRDNTKGSVYLQMNSLKPEDTAVYYCAASENNLLTGVWHYWGRGTQVTVSS
